Source: the supplement of paper PMC7125110
± gives the standard error. Variants at the floor of the assay were thinned out.

B1: glmS ribozyme (parent)
chain: AUAAAAGCGCCAGAACUACAGAAAUGUAGUUGACGAGGAGGAGGUUUAUCGAAUUUUCGGCGGAUGCCUCCAAA

What was measured:
Details in all cases: with glucosamine-6-phosphate
[1] = variants of: B1; experiment: self-cleavage kobs at 40 uM GlcN6P; higher = faster cleavage; RNA array
Method in brief: (§1)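 Tracking of barcoded ribozyme variants used a hybridised Cy3 probe at 37 °C, after in situ transcription by E. coli RNA polymerase on sequenced MiSeq chips. The flowed solution held 40 μM to 10 mM glucosamine-6-phosphate in HEPES/KCl/Mg(OAc)2 buffer, and imaging ran over ~14 h. kobs was taken from exponential decay fits of normalised per-tile medians, and kcat and KM from weighted Michaelis–Menten fits.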

[2] = variants of: B1; experiment: self-cleavage kobs at 160 uM GlcN6P; higher = faster cleavage; RNA array
Method in brief: as §1

[3] = variants of: B1; experiment: self-cleavage kobs at 640 uM GlcN6P; higher = faster cleavage; RNA array
Method in brief: as §1

[4] = variants of: B1; experiment: self-cleavage kobs at 2500 uM GlcN6P; higher = faster cleavage; RNA array
Method in brief: as §1

[5] = variants of: B1; experiment: self-cleavage kobs at 10000 uM GlcN6P; higher = faster cleavage; RNA array
Method in brief: as §1

Row | Variant | self-cleavage kobs at 40 uM GlcN6P [1] [s⁻¹] | self-cleavage kobs at 160 uM GlcN6P [2] [s⁻¹] | self-cleavage kobs at 640 uM GlcN6P [3] [s⁻¹] | self-cleavage kobs at 2500 uM GlcN6P [4] [s⁻¹] | self-cleavage kobs at 10000 uM GlcN6P [5] [s⁻¹]
1 | G9C C11U | < 1e-05 | < 1e-05 | < 1e-05 | < 1e-05 | < 1e-05
2 | A12C A14G A15C | 0.000144 ± 2.4e-05 | – | 0.00124 ± 0.0003 | 0.00354 ± 0.00082 | –
3 | G43U G60C | < 1e-05 | < 1e-05 | < 1e-05 | – | < 1e-05
4 | G37U C68A | < 1e-05 | – | – | – | < 1e-05
5 | A14C A15U U47C | < 1e-05 | – | – | – | –
6 | G32U C50G C61A | 0.000162 ± 2.5e-05 | – | – | – | 0.000319 ± 4.2e-05
7 | U65A U69C | 5.26e-05 ± 1.5e-05 | – | 0.00019 ± 8.3e-05 | 0.00117 ± 0.00044 | 0.000843 ± 0.00023
8 | A36G C61A G62U C67A | < 1e-05 | – | – | – | –
9 | G35A A48U | < 1e-05 | < 1e-05 | < 1e-05 | < 1e-05 | < 1e-05
10 | G37U G41U U56A G62A G63U | < 1e-05 | – | – | – | –
11 | G32C G44A | < 1e-05 | < 1e-05 | < 1e-05 | < 1e-05 | < 1e-05
12 | A6G U46A | < 1e-05 | < 1e-05 | – | – | –
13 | G9A U47G A48U | < 1e-05 | – | – | – | –
14 | A6C C10G G41A U49G G60A | < 1e-05 | – | – | – | –
15 | U30G A42G | 0.000448 ± 7.5e-05 | 0.000561 ± 0.00012 | 0.00469 ± 0.001 | 0.0119 ± 0.0032 | 0.0206 ± 0.0039
16 | U30G C34A G51U A64U | < 1e-05 | – | – | – | –
17 | C16G G35A U56G G63C | < 1e-05 | – | – | – | < 1e-05
18 | G38A A39G | < 1e-05 | < 1e-05 | < 1e-05 | < 1e-05 | –
19 | G13U A33G | < 1e-05 | < 1e-05 | < 1e-05 | < 1e-05 | < 1e-05
20 | C8U A36C G41C | < 1e-05 | – | – | – | –
21 | G29C G41C G44A G60A | < 1e-05 | – | – | – | < 1e-05
22 | A42U C50U | < 1e-05 | < 1e-05 | < 1e-05 | < 1e-05 | < 1e-05
23 | A33G A36G G51U | < 1e-05 | – | – | – | < 1e-05
24 | U30C G41C C61A C71U | < 1e-05 | – | – | – | < 1e-05

Row | Variant | self-cleavage kobs at 40 uM GlcN6P [1] [s⁻¹] | self-cleavage kobs at 160 uM GlcN6P [2] [s⁻¹] | self-cleavage kobs at 640 uM GlcN6P [3] [s⁻¹] | self-cleavage kobs at 2500 uM GlcN6P [4] [s⁻¹] | self-cleavage kobs at 10000 uM GlcN6P [5] [s⁻¹]
25 | A36G G38A C58A | < 1e-05 | – | < 1e-05 | – | < 1e-05
26 | A36U A42U C68U | < 1e-05 | – | – | – | –
27 | C10A G37C A42C C70A | < 1e-05 | – | – | – | –
28 | A6U G44C | < 1e-05 | < 1e-05 | < 1e-05 | < 1e-05 | –
29 | G13A G43A C67A | < 1e-05 | – | – | – | –
30 | G37U G41U | < 1e-05 | < 1e-05 | – | < 1e-05 | < 1e-05
31 | U30G C61U | < 1e-05 | – | < 1e-05 | < 1e-05 | –
32 | A48C U49C C61G | < 1e-05 | < 1e-05 | – | < 1e-05 | < 1e-05
33 | C10G A52C U56A C71U | < 1e-05 | – | – | – | –
34 | G7A A12C U30G | < 1e-05 | – | – | – | –
35 | A48U G63A | < 1e-05 | – | < 1e-05 | < 1e-05 | < 1e-05
36 | A12G U30A A42G U54C | < 1e-05 | – | – | – | 6.88e-05 ± 2.4e-05
37 | U56G C67U | 0.000109 ± 1.2e-05 | 0.000258 ± 4.6e-05 | 0.00135 ± 0.00015 | 0.00142 ± 0.00022 | 0.00538 ± 0.00085
38 | U30G A39G C50G C68G | 0.00025 ± 6.5e-05 | – | – | – | 0.000218 ± 4.7e-05
39 | G44U C68A | < 1e-05 | < 1e-05 | < 1e-05 | – | < 1e-05
40 | C11G U45G | < 1e-05 | < 1e-05 | < 1e-05 | < 1e-05 | < 1e-05
41 | G9A A52U U65G | < 1e-05 | – | – | – | –
42 | U54A C71U | 0.00124 ± 0.00023 | 0.00159 ± 0.00033 | 0.00337 ± 0.00063 | 0.00313 ± 0.00083 | 0.0214 ± 0.01
43 | A42G C67U | 0.000328 ± 4.2e-05 | 0.00136 ± 0.00031 | 0.00155 ± 0.00035 | 0.00245 ± 0.00057 | 0.00807 ± 0.0016
44 | G7U G44U | < 1e-05 | < 1e-05 | < 1e-05 | – | < 1e-05
45 | G13U U57G | < 1e-05 | – | – | – | –
46 | A14C G44C C50U U65G | < 1e-05 | – | – | – | –
47 | A12U G38A G41A A64G | < 1e-05 | – | – | – | < 1e-05
